Results: patent US20200002414A1 (published 2020)

Key:
human Ror2 [1] = target: T1, human Ror2 (human, UniProt Q01974 34-403, limits assumed); assay: ELISA, human Ror2, pH 7.4
T1 construct: also called hROR2; receptor tyrosine kinase-like orphan receptor 2

human Ror2 [2] = target: T1, human Ror2; assay: ELISA, human Ror2; ratio of signal at pH 6.0 to pH 7.4
human Ror2 [3] = target: T1, human Ror2; assay: ELISA, human Ror2, pH 6.0
mouse Ror2 = target: T2, mouse Ror2 (mouse, UniProt Q9Z138 34-403, limits assumed); assay: ELISA
T2 construct: also called mROR2
T2 sequence (Q9Z138 34-403 limits assumed): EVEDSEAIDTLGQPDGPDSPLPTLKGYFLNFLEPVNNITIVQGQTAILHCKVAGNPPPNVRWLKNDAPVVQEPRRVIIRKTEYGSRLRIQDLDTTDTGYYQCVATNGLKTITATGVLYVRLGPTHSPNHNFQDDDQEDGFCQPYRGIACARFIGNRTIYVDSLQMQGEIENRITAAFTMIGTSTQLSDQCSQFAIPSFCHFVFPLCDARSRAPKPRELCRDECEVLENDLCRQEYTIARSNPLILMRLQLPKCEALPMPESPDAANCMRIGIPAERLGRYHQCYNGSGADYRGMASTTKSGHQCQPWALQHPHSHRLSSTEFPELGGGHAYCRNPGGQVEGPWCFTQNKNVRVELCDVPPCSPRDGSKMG

human Ror2 [4] = target: T1, human Ror2; assay: ELISA
cynomolgus Ror2 = target: T3, cynomolgus Ror2 (cynomolgus, UniProt A0A7N9D5U8 34-403); assay: ELISA
T3 construct: also called cynoROR2
T3 sequence (A0A7N9D5U8 entry or part of it): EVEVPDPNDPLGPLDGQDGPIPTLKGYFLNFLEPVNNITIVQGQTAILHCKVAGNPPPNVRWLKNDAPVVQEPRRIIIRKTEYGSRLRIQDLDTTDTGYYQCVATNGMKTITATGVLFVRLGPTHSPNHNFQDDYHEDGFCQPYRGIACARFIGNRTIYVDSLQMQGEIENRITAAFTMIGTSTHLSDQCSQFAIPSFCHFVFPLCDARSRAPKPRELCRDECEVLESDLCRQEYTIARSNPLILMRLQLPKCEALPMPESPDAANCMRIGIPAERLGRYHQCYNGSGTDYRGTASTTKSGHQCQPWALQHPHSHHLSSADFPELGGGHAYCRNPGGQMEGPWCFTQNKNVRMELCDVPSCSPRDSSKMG

T1 sequence (Q01974 34-403 limits assumed): as the sequence (A0A7N9D5U8 entry or part of it) above, with P5L, A212T, T289M, A320T counted along it

Affinity ELISA pH 7.4 (human Ror2 [1]) | ratio, pH 6.0/7.4 (human Ror2 [2]) | Affinity ELISA pH 6.0 (human Ror2 [3]) | EC50 (mouse Ror2) | EC50 (human Ror2 [4]) | EC50 (cynomolgus Ror2) | Binder
0.268 | 2.46 | 0.66 |  |  |  | LC-G049P (antibody, V domains shown) VH: EVQLQQSGPELVKPGASVKISCKTSGYTFTEYTMHWMKQSHRKSLEWIGGINTNNGGTGYNQKFKGKATLTVDKSSSTAYMELRSLTSEDSAVYFCARGSLYSYGNSYFDYWGQGTLVTVSS VL: QIVLTQSPAIMSASPGEKVTITCSATSSVSYMHWFQQKPGTSPKLWIYPTSNLASGVPARFSGSGSGTSYSLTISRMEAEDAATYYCQQRSSYPFTFGQGTKVEIK
0.7 | 1.92 | 1.34 |  |  |  | LC-Y031C (antibody, V domains shown) VH: EVQLQQSGPELVKPGASVKISCKTSGYTFTEYTMHWMKQSHRKSLEWIGGINTNNGGTGYNQKFKGKATLTVDKSSSTAYMELRSLTSEDSAVYFCARGSLYSYGNSYFDYWGQGTLVTVSS VL: QIVLTQSPAIMSASPGEKVTITCSATSSVSCMHWFQQKPGTSPKLWIYGTSNLASGVPARFSGSGSGTSYSLTISRMEAEDAATYYCQQRSSYPFTFGQGTKVEIK
1.12 | 1 | 1.13 |  |  |  | LC-S092D (antibody, V domains shown) VH: EVQLQQSGPELVKPGASVKISCKTSGYTFTEYTMHWMKQSHRKSLEWIGGINTNNGGTGYNQKFKGKATLTVDKSSSTAYMELRSLTSEDSAVYFCARGSLYSYGNSYFDYWGQGTLVTVSS VL: QIVLTQSPAIMSASPGEKVTITCSATSSVSYMHWFQQKPGTSPKLWIYGTSNLASGVPARFSGSGSGTSYSLTISRMEAEDAATYYCQQRSDYPFTFGQGTKVEIK
0.107 | 1.77 | 0.19 |  |  |  | LC-F097D (antibody, V domains shown) VH: EVQLQQSGPELVKPGASVKISCKTSGYTFTEYTMHWMKQSHRKSLEWIGGINTNNGGTGYNQKFKGKATLTVDKSSSTAYMELRSLTSEDSAVYFCARGSLYSYGNSYFDYWGQGTLVTVSS VL: QIVLTQSPAIMSASPGEKVTITCSATSSVSYMHWFQQKPGTSPKLWIYGTSNLASGVPARFSGSGSGTSYSLTISRMEAEDAATYYCQQRSSYPFTDGQGTKVEIK
0.474 | 1.59 | 0.755 |  |  |  | LC-T096D (antibody, V domains shown) VH: EVQLQQSGPELVKPGASVKISCKTSGYTFTEYTMHWMKQSHRKSLEWIGGINTNNGGTGYNQKFKGKATLTVDKSSSTAYMELRSLTSEDSAVYFCARGSLYSYGNSYFDYWGQGTLVTVSS VL: QIVLTQSPAIMSASPGEKVTITCSATSSVSYMHWFQQKPGTSPKLWIYGTSNLASGVPARFSGSGSGTSYSLTISRMEAEDAATYYCQQRSSYPFDFGQGTKVEIK
0.256 | 2.19 | 0.56 |  |  |  | LC-R090H (antibody, V domains shown) VH: EVQLQQSGPELVKPGASVKISCKTSGYTFTEYTMHWMKQSHRKSLEWIGGINTNNGGTGYNQKFKGKATLTVDKSSSTAYMELRSLTSEDSAVYFCARGSLYSYGNSYFDYWGQGTLVTVSS VL: QIVLTQSPAIMSASPGEKVTITCSATSSVSYMHWFQQKPGTSPKLWIYGTSNLASGVPARFSGSGSGTSYSLTISRMEAEDAATYYCQQHSSYPFTFGQGTKVEIK
0.251 | 1.74 | 0.438 |  |  |  | LC-Q089E (antibody, V domains shown) VH: EVQLQQSGPELVKPGASVKISCKTSGYTFTEYTMHWMKQSHRKSLEWIGGINTNNGGTGYNQKFKGKATLTVDKSSSTAYMELRSLTSEDSAVYFCARGSLYSYGNSYFDYWGQGTLVTVSS VL: QIVLTQSPAIMSASPGEKVTITCSATSSVSYMHWFQQKPGTSPKLWIYGTSNLASGVPARFSGSGSGTSYSLTISRMEAEDAATYYCQERSSYPFTFGQGTKVEIK
1.18 | 1.04 | 1.23 |  |  |  | LC-S092V (antibody, V domains shown) VH: EVQLQQSGPELVKPGASVKISCKTSGYTFTEYTMHWMKQSHRKSLEWIGGINTNNGGTGYNQKFKGKATLTVDKSSSTAYMELRSLTSEDSAVYFCARGSLYSYGNSYFDYWGQGTLVTVSS VL: QIVLTQSPAIMSASPGEKVTITCSATSSVSYMHWFQQKPGTSPKLWIYGTSNLASGVPARFSGSGSGTSYSLTISRMEAEDAATYYCQQRSVYPFTFGQGTKVEIK
0.252 | 2.91 | 0.733 |  |  |  | LC-S030D (antibody, V domains shown) VH: EVQLQQSGPELVKPGASVKISCKTSGYTFTEYTMHWMKQSHRKSLEWIGGINTNNGGTGYNQKFKGKATLTVDKSSSTAYMELRSLTSEDSAVYFCARGSLYSYGNSYFDYWGQGTLVTVSS VL: QIVLTQSPAIMSASPGEKVTITCSATSSVDYMHWFQQKPGTSPKLWIYGTSNLASGVPARFSGSGSGTSYSLTISRMEAEDAATYYCQQRSSYPFTFGQGTKVEIK
0.215 | 2.28 | 0.489 |  |  |  | LC-F097E (antibody, V domains shown) VH: EVQLQQSGPELVKPGASVKISCKTSGYTFTEYTMHWMKQSHRKSLEWIGGINTNNGGTGYNQKFKGKATLTVDKSSSTAYMELRSLTSEDSAVYFCARGSLYSYGNSYFDYWGQGTLVTVSS VL: QIVLTQSPAIMSASPGEKVTITCSATSSVSYMHWFQQKPGTSPKLWIYGTSNLASGVPARFSGSGSGTSYSLTISRMEAEDAATYYCQQRSSYPFTEGQGTKVEIK
 |  |  | 7.65 µg/mL | 0.201 µg/mL | 0.327 µg/mL | conditionally active antibody BAP048 (antibody, V domains shown) VH: EVQLVQSGAEVKKPGESLRISCKGSGYTFTEYTMHWVRQAPGQGLEWMGGINTNNGGTGYNQKFKGRVTISADKSISTAYLQWSSLKASDTAMYYCAHGSLYSYGNSYFDYWGQGTLVTVSS VL: AIQLTQSPSSLSASVGDRVTITCSATSSVSYMHWYLQKPGQSPQLLIYGTSNLASGVPDRFSGSGSGTDFTLKISRVEAEDVGVYYCQQRSSYPFTFGQGTKVEIK
